From US20250332275A1, “Branched Polypeptide Carrier for Efficient Nucleic Acid Delivery and Its Variants” (SUZHOU HEALIRNA BIOTECHNOLOGY CO., LTD., priority 2022, published 2025)
Ends that are not written are not given here.

Test system: mRNA
Assay: Agarose gel electrophoresis of branched polypeptide mixed with mRNA
Type: physicochemical
Settings: 1.5% agarose, 190 V, 20 minutes
Experimental: A 1.5% agarose gel was prepared by dissolving agarose in a TBE buffer using a microwave. After adding the sub-green dye, the solution was poured into the gel plate, and a comb was inserted. Polypeptide Sequences 9-12 samples were each mixed with mRNA and then mixed with the sample loading buffer in a 1:1 ratio and set aside after thorough mixing. The gel was loaded with Marker and the samples, then subjected to electrophoresis at 190 V for 20 minutes, and images were captured using a gel imaging system.

[1] = polypeptide with mRNA at a 1:1 mass ratio
[2] = polypeptide with mRNA at a 1:2 mass ratio

Substance | retention of complex in sample well (mRNA encapsulation, FIG. 7) [1] | retention of complex in sample well (mRNA encapsulation, FIG. 7) [2]
K(LAALAALAALAALAA)KK(KSKKSKKSKC)KK(LAALAALAALAALAA)KK(KSKKSKKSKC)KK(LAALAALAALAALAA) (chain 1 KKKKKKKKK; chain 2 AALAALAALAALAAL; chain 3 CKSKKSKKSK; also: branched: C-termini of three chain 2 copies amide-linked to side chains of Lys1, Lys5, Lys9 of chain 1, C-termini of two chain 3 copies amide-linked to side chains of Lys3, Lys7 of chain 1) [Polypeptide Sequence 12] | remained within the sample wells | remained within the sample wells
K(LAALAALAALAALAAC)KK(KDKDKDKDKDKD)KK(KDKDKDKDKDKD)KK(LAALAALAALAALAAC) (chain 1 KKKKKKK; chain 2 CAALAALAALAALAAL; chain 3 DKDKDKDKDKDK; also: branched: C-termini of two chain 2 copies amide-linked to side chains of Lys1, Lys7 of chain 1, C-termini of two chain 3 copies amide-linked to side chains of Lys3, Lys5 of chain 1) [Polypeptide Sequence 11] | remained within the sample wells | remained within the sample wells
K(LAALAALAALAALAALAALAAC)KK(KSKKSKKSKKSKKSK)KK(LAALAALAALAALAALAALAAC) (chain 1 KKKKK; chain 2 CAALAALAALAALAALAALAAL; also: branched: C-termini of two chain 2 copies amide-linked to side chains of Lys1, Lys5 of chain 1, C-terminus of chain 3 amide-linked to side chain of Lys3 of chain 1) [Polypeptide Sequence 10] | remained within the sample wells | remained within the sample wells
K(LAALAALAALAALAALAALAAC)KKKK(LAALAALAALAALAALAALAAC) (chain 1 KKKKK; chain 2 CAALAALAALAALAALAALAAL; also: branched: C-termini of two chain 2 copies amide-linked to side chains of Lys1, Lys5 of chain 1) [Polypeptide Sequence 9] | remained within the sample wells | remained within the sample wells
